According to article PMC7261152 (Nucleic Acids Research, 2020):

Target: T1, human BCMA-Fc fusion protein (human, UniProt Q02223 1-54)
T1 sequence (looked up): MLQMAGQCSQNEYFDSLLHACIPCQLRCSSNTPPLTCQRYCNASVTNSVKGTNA
Experiment: ELISA

binding result: binds
B1: anti-BCMA DVD-IgG1 (2) (bispecific antibody)
light: DIQMTQSPSSLSASVGDRVTITCSASQDISNYLNWYQQKPGKAPKLLIYYTSNLHSGVPSRFSGSGSGTDFTLTISSLQPEDFATYYCQQYRKLPWTFGQGTKLEIKASTKGPELQMTQSPSSLSASVGDRVTITCRSSQSLLHTYGSPYLNWYLQKPGQSPKLLIYKVSNRFSGVPSRFSGSGSGTDFTLTISSLQPEDFAVYFCSQGTHLPYTFGGGTKVEIKRTVAAPSVFIFPPSDEQLKSGTASVVCLLNNFYPREAKVQWKVDNALQSGNSQESVTEQDSKDSTYSLSSTLTLSKADYEKHKVYACEVTHQGLSSPVTKSFNRGEC
heavy: not shown
